Assay results taken from article PMC2999606.

Target: Flag-tagged chicken p53 (chicken) (UniProt P10360)
UniProt P10360, sequence (P10360 whole entry): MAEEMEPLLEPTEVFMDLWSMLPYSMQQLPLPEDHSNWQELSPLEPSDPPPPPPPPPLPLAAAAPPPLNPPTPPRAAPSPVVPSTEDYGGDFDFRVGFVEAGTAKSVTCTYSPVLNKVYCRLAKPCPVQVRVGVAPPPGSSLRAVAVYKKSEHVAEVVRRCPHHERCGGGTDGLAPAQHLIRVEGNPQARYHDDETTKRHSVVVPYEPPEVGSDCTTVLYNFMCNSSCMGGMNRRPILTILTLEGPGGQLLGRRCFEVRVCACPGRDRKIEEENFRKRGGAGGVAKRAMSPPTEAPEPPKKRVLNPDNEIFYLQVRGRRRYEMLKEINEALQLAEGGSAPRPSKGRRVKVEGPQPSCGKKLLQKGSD

With GFP-tagged Meq (natural protein) the p53-mediated apoptosis (TUNEL assay, percent of apoptotic cells) in CEFs co-transfected with Flag-p53 and Flag-Meq at 1:10 molar ratio; approximately 46% with Flag-p53 alone was 12 % of cells.
